# In IntAct's records for PubMed 36126419:
# B1: 3-mercaptopyruvate sulfurtransferase (Homo sapiens), P25325 (parent)
# chain: MASPQLCRALVSAQWVAEALRAPRAGQPLQLLDASWYLPKLGRDARREFEERHIPGAAFFDIDQCSDRTSPYDHMLPGAEHFAEYAGRLGVGAATHVVIYDASDQGLYSAPRVWWMFRAFGHHAVSLLDGGLRHWLRQNLPLSSGKSQPAPAEFRAQLDPAFIKTYEDIKENLESRRFQVVDSRATGRFRGTEPEPRDGIEPGHIPGTVNIPFTDFLSQEGLEKSPEEIRHLFQEKKVDLSKPLVATCGSGVTACHVALGAYLCGKPDVPIYDGSWVEWYMRARPEDVISEGRGKTH
# Variants of: B1
# Details: with akt1_human AKT1, P31749
# akt1_human AKT1, P31749, sequence (P31749 whole entry): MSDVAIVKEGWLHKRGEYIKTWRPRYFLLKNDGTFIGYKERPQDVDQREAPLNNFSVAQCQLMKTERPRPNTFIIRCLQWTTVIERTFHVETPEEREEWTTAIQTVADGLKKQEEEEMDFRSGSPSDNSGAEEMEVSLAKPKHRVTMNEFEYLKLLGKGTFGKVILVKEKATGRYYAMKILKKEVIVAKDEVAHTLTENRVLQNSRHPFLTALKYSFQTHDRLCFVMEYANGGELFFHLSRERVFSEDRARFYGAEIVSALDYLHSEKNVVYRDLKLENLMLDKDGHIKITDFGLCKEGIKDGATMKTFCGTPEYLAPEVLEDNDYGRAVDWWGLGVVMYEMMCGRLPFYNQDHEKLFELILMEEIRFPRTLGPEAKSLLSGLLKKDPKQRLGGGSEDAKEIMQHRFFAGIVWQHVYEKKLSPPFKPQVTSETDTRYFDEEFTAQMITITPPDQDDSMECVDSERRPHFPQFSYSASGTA
row,Variant,effect of a mutation on the interaction
1,MASPQLCRALVSAQWVAEALRAPRAGQPLQLLDASWYLPKLGRDARREFEERHIPGAAFFDIDQCSDRTSPYDHMLPGAEHFAEYAGRLGVGAATHVVIYDASDQGLYSAPRVWWMFRAFGHHAVSLLDGGLRHWLRQNLPLSSGKSQPAPAEFRAQLDPAFIKTYEDIKENLESRRFQVVDSRATGRFRGTEPEPRDGIEPGHIPGTVNIPFTDFLSQEGLEKSPEEIRHLFQEKKVDLSKPLVATAGSGVTACHVALGAYLCGKPDVPIYDGSWVEWYMRARPEDVISEGRGKTH [C248A],disrupting interaction strength
